The results in this text go back to the supplement of paper PMC12783771.

To fix the notation:
B1: library; a variant is named by its letters at X, in order (parent)
chain: MNIQIGELAKRTACPVVTIRFYEQEGLLPPPGRSRGNFRLYGEEHVERLQFIRHCRSLDMPLSDVRTLLSYRKRPDQDCGEVXMLLDEHIRQVESRIGALLELKHHLVELREACSGARPAQSCGILQXLSXCVCXTRGTTAHXSD

± gives the standard deviation of the averaged measurements.

Data set [1] covers variants of B1. Put plainly: sfGFP reporter fluorescence (15 h) (µM FITC); higher = higher leak. As to conditions: library round: Round 2; ligand: none. The method in brief: (§1)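 PCR-made linear PbrR templates (Echo-normalized to 5 nM) were expressed in BL21 Star (DE3) extract (PANOx-SP) with pPbrR-sfGFP reporter plasmid and 30 μg/mL GamS. Reactions were 1 μL, Echo-assembled, with 1 µM lead chloride, 30 µM zinc acetate or no metal, incubated 15 hr at 30 °C. Endpoint sfGFP fluorescence (485/528 nm, Synergy Neo2) was converted to µM FITC via standard curves in 50 mM sodium borate pH 8.5. Up to three biological replicates.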

The variants in data set [2] derive from B1. Description: sfGFP reporter fluorescence (15 h) (µM FITC); higher = stronger transcriptional activation. Conditions: library round: Round 2. The method in brief: as §1

MNIQIGELAKRTACPVVTIRFYEQEGLLPPPGRSRGNFRLYGEEHVERLQFIRHCRSLDMPLSDVRTLLSYRKRPDQDCGEVNMLLDEHIRQVESRIGALLELRHHLVELREACSGARPAQSCGILQILSCCVCDTRGTTAHPSD [NICDP K104R]: the sfGFP reporter fluorescence in data set [1] was found to be 0.0714 ± 0.0069; in data set [2] (ligand: 1 µM Pb), 0.134 ± 0.0046; in data set [2] (ligand: 30 µM Zn), 0.244 ± 0.034.
As to MNIQIGELAKRTACPVVTIRFYEQEGLLPPPGRSRGNFRLYGEEHVERLQFIRHCRSLDMPLSDVRTLLSYRKRPDQDCGEVNMLLDEHIRQVESRIGALLELKHHLVLLREACSGARPAQSCGILQHLSDCVCDTRGTTAHWSD [NHDDW E109L], the sfGFP reporter fluorescence in data set [1] amounted to 0.0479 ± 0.00051; in data set [2] (ligand: 1 µM Pb), 0.0832 ± 0.0024; in data set [2] (ligand: 30 µM Zn) it was 0.399 ± 0.045.
As for MNIQIGELAKRTACPVVTIRFYEQEGLLPPPGRSRGNFRLYGEEHVERLQFIRHCRSLDMPLSDVRTLLSYRKRPDQDCGEVNMLLDEHIRQVESRIGALLELKHHLVLLREACSGARPAQSCGILQHLSCCVCDTRGTTAHLSD [NHCDL E109L], the sfGFP reporter fluorescence in data set [1] was 0.0622 ± 0.0037; in data set [2] (ligand: 1 µM Pb), 0.0798 ± 0.0072; in data set [2] (ligand: 30 µM Zn), 0.512 ± 0.062.
MNIQIGELAKRTACPVVTIRFYEQEGLLPPPGRSRGNFRLYGEEHVERLQFIRHCRSLDMPLSDVRTLLSYRKRPDQDCGEVTMLLDEHIRQVESRIGALLELKHHLVELREACSGARPAQSCGILQHLSDCVCDTRGTTAHWSD [THDDW]: the sfGFP reporter fluorescence stood at 0.0458 ± 0.0021 in data set [1], 0.0682 ± 0.011 in data set [2] (ligand: 1 µM Pb) and 0.0889 ± 0.0029 in data set [2] (ligand: 30 µM Zn).
Consider MNIQIGELAKRTACPVVTIRFYEQEGLLPPPGRSRGNFRLYGEEHVERLQFIRHCRSLDMPLSDVRTLLSYRKRPDQDCGEVNMLLDEHIRQVESRIGALLELKHHLVLLREACSGARPAQSCGLLQHLSDCVCDTRGTTAHLSD [NHDDL E109L I125L], for which the sfGFP reporter fluorescence in data set [1] was found to be 0.048 ± 0.0018; in data set [2] (ligand: 1 µM Pb) it was 0.044 ± 0.0027; in data set [2] (ligand: 30 µM Zn) it was 0.047 ± 0.0027.
On to MNIQIGELAKRTACPVVTIRFYEQEGLLPPPGRSRGNFRLYGEEHVERLQFIRHCRSLDMPLSDVRTLLSYRKRPDQDCGEVNMLLDEHIRQVESRIGALLELKHHLLELREACSGARPAQSCGILQHLSDCVCDTRGTTAHASD [NHDDA V108L], for which the sfGFP reporter fluorescence amounted to 0.0477 ± 0.0017 in data set [1], 0.0671 ± 0.0043 in data set [2] (ligand: 1 µM Pb) and 0.271 ± 0.03 in data set [2] (ligand: 30 µM Zn).
On the same counts, the results for MNIQIGELAKRTACPVVTIRFYEQEGLLPPPGRSRGNFRLYGEEHVERLQFIRHCRSLDMPLSDVRTLLSYRKRPDQDCGEVNMLLDEHIRQVESRIGALLELKHHLVELREACSGARPAQSCGVLQHLSCCVCDTRGTTAHPSD [NHCDP I125V] are 0.0459 ± 0.0044, 0.0526 ± 0.0016 and 0.0631 ± 0.0035.
On the same counts, the results for MNIQIGELAKRTACPVVTIRFYEQEGLLPPPGRSRGNFRLYGEEHVERLQFIRHCRSLDMPLSDVRTLLSYRKRPDQDCGEVNMLLDEHIRQVESRIGALLELKHHCVELREACSGARPAQSCGILQILSACVCDTRGTTAHPSD [NIADP L107C] are 2.06 ± 0.19, 3.57 ± 0.56 and 3.67 ± 0.32.
On the same counts, the results for MNIQIGELAKRTACPVVTIRFYEQEGLLPPPGRSRGNFRLYGEEHVERLQFIRHCRSLDMPLSDVRTLLSYRKRPDQDCGEVNMLLDEHIRQVESRIGALLELKHHLVELREACSGARPAQSCGILQHLSDCVCATRGTTAHWSD [NHDAW] are 0.0656 ± 0.0096, 0.117 ± 0.0091 and 0.55 ± 0.081.
Regarding MNIQIGELAKRTACPVVTIRFYEQEGLLPPPGRSRGNFRLYGEEHVERLQFIRHCRSLDLPLSKVRTLLSYRKRPDQDCGEVNMLLDEHIRQVESRIGALLELKHHLVELREACSGARPAQSCGILQILSCCVCDTRGTTAHPSD [NICDP M60L D64K], the values for the sfGFP reporter fluorescence in data set [1], in data set [2] (ligand: 1 µM Pb) and in data set [2] (ligand: 30 µM Zn) were 2.32 ± 0.17, 3.17 ± 0.17 and 3.67 ± 0.38, respectively.
Turning to MNIQIGELAKRTACPVVTIRFYEQEGLLPPPGRSRGNFRLYGEEHVERLQFIRHCRSLDMPLSDVRTLLSYRKRPDQDCGEVNMLLDEHIRQVESRIGALLELKHHLVELREACSGARPAQSCGILQILSACVCPTRGTTAHPSD [NIAPP], the sfGFP reporter fluorescence in data set [1] is 0.139 ± 0.0095; in data set [2] (ligand: 1 µM Pb) it was 0.472 ± 0.03; in data set [2] (ligand: 30 µM Zn), 2.03 ± 0.16.
In the case of MNIQIGELAKRTACPVVTIRFYEQEGLLPPPGRSRGNFRLYGEEHVERLQFIRHCRSLDMPLSDVRTLLSYRKRPDQDCGEVNMLLDEHIRQVESRIGALLELKHHLVELREACSGARPAQSCGILQHLSECVCDTRGTTAHWSD [NHEDW], the values for the sfGFP reporter fluorescence in data set [1], in data set [2] (ligand: 1 µM Pb) and in data set [2] (ligand: 30 µM Zn) were 0.0563 ± 0.0014, 0.119 ± 0.014 and 0.842 ± 0.068, respectively.
Consider MNIQIGELAKRTACPVVTIRFYEQEGLLPPPGRSRGNFRLYGEEHVERLQFIRHCRSLDMPLSDVRTLLSYRKRPDQDCGEVNMLLDEHIRQVESRIGALLELKHHLVELREACSGARPAQSCGLLQILSCCVCDTRGTTAHPSD [NICDP I125L], for which the values for the sfGFP reporter fluorescence in data set [1], in data set [2] (ligand: 1 µM Pb) and in data set [2] (ligand: 30 µM Zn) were 0.0468 ± 0.0013, 0.0446 ± 0.0014 and 0.0531 ± 0.0013, respectively.
In the case of MNIQIGELAKRTACPVVTIRFYEQEGLLPPPGRSRGNFRLYGEEHVERLQFIRHCRSLDMPLSDVRTLLSYRKRPDQDCGEVNMLLDEHIRQVESRIGALLELKHHLVLLREACSGARPAQSCGILQHLSDCVCDTRGTTAHASD [NHDDA E109L], the results for the sfGFP reporter fluorescence in data set [1], in data set [2] (ligand: 1 µM Pb) and in data set [2] (ligand: 30 µM Zn) were 0.0459 ± 0.0013, 0.0809 ± 0.0052 and 0.343 ± 0.014, respectively.
